Assay results taken from patent publication US20200223906A1.

Key:
[1] = molecular target: RSV F protein of subtype A (strain A2) on recombinant mKate-RSV (respiratory syncytial virus subtype A (strain A2)) (UniProt P03420); assay: cell-based or functional assay
[2] = molecular target: human metapneumovirus (HMPV) F protein on GFP-expressing hMPV recombinant virus (NL/1/00, A1 sublineage) (human metapneumovirus); assay: cell-based or functional assay

Question: How did the RSV-A2 IC50 [1] turn out when MPE8 (antibody) was run?
Answer: 0.04 µg/mL

Question: What about the HMPV-A1 IC50 [2] of the same substance?
Answer: 0.07 µg/mL
